Data from patent US20210062263A1, “A CLINICAL […]” (priority 2016, published 2021).
“Also recorded” adds a separate entry of the source.

Assays:
Assay type in all cases: cell-based, human
keloid fibroblasts [1] = assay: qRT-PCR relative gene expression in keloid fibroblasts
Description: (§1) Normal and keloid tissue samples were collected from 11 patients and were used to establish primary fibroblast cultures. Using these fibroblasts, qRT-PCR for relative gene expressions and enzyme-linked immunosorbent assay (ELISA) for relative protein expressions were performed. Fibroblasts were also treated with 200 pM activin for 24 hours to examine the effects on fibrosis-related genes.
(§2) Normal and keloid tissue samples were collected from 11 patients and used to establish primary fibroblast cell cultures as described in Example 1. Relative expressions of fibrosis-related genes were examined using qRT-PCR. Protein levels of activin and follistatin, an activin-antagonist, were also measured by ELISA and radioimmunoassay in lysates of dermal fibroblasts. Furthermore, keloid fibroblasts were treated with 1 nM follistatin for 24 hours to examine the effects on fibrosis-related genes.
(§3) Normal and keloid fibroblasts were isolated and cultured from a patient. Relative expressions of fibrosis-related genes were examined using qRT-PCR. Protein levels of activin and follistatin were also measured by ELISA and radioimmunoassay in dermal fibroblasts as described in Example 2. Furthermore, keloid fibroblasts were daily treated with 1 nM follistatin for 1, 3 and 5 days to examine the effects on fibrosis-related genes.
(§4) Normal and keloid fibroblasts were isolated and cultured in vitro using standard fibroblast cell culture protocols. Relative gene expressions were examined using qRT-PCR. Protein levels of activin and follistatin were also measured in dermal fibroblasts by enzyme-linked immunosorbent assay and radioimmunoassay respectively. Cells were also treated with 100 ng/ml follistatin for 5 days to examine the effects on the expression of fibrosis-related genes.
(§5) The upregulation of CTGF by activin A was also confirmed in the multiple patient samples (FIG. 8n).
(§6) To investigate the role of AP1 in keloid pathogenesis, fibroblasts were treated for 3 days with SR11302, an inhibitor of AP1 activity. […] Moreover, in order to examine the effects of FST288, fibroblasts were treated for 3 days or 5 days.

normal fibroblasts [2] = assay: qRT-PCR relative gene expression in normal fibroblasts
Description: as §1, §2, §3, §4, §5, §6

keloid fibroblasts [3] = assay: Activin A protein in cell lysate and media of keloid fibroblasts; conditions: after treatment with AP1 inhibitor
Description: as §1, §4, §6

normal fibroblasts [4] = assay: Activin A protein in cell lysate and media of normal fibroblasts; conditions: after treatment with AP1 inhibitor
Description: as §1, §4, §6

keloid fibroblasts [5] = assay: Tolerance of keloid fibroblasts in culture (cell death); conditions: 3 days
Description: as §6

normal fibroblasts [6] = assay: Tolerance of normal fibroblasts in culture (cell death); conditions: 3 days
Description: as §6

keloid fibroblasts [7] = assay: RNA sequencing of keloid fibroblast cultures with/without follistatin; conditions: single follistatin treatment
Description: RNAseq was performed with/without a single follistatin treatment on normal and keloid fibroblast cultures on day 1 and day 5 (FIG. 7) to compare the extent of gene expression changes in keloid disease.

[8] = SR11302 10 uM and 15 uM, 3 days
[9] = daily 1 nM follistatin, five days

Question: Which results are given for `CC1=C(/C=C/C(=C/C=C/C(C)=C/C(=O)O)c2ccc(C)cc2)C(C)(C)CCC1` [SR11302]?
Answer: CTGF gene expression (keloid fibroblasts [1]; [8]): significantly decreased; INHBA gene expression (keloid fibroblasts [1]; [8]): significantly decreased; CTGF gene expression (normal fibroblasts [2]; [8]): significantly decreased; INHBA gene expression (normal fibroblasts [2]; [8]): significantly decreased; activin A protein in cell lysate and media (keloid fibroblasts [3]): significantly decreased; activin A protein in cell lysate and media (normal fibroblasts [4]): significantly decreased; doses resulting in cell death (keloid fibroblasts [5]): higher than 20 uM; doses resulting in cell death (normal fibroblasts [6]): higher than 20 uM

B1: follistatin: an activin-antagonist protein; isoform not stated in these examples (protein, UniProt P19883 30-344, looked up)
Follistatin: GNCWLRQAKNGRCQVLYKTELSKEECCSTGRLSTSWTEEDVNDNTLFKWMIFNGGAPNCIPCKETCENVDCGPGKKCRMNKKNKPRCVCAPDCSNITWKGPVCGLDGKTYRNECALLKARCKEQPELEVQYQGRCKKTCRDVFCPGSSTCVVDQTNNAYCVTCNRICPEPASSEQYLCGNDGVTYSSACHLRKATCLLGRSIGLAYEGKCIKAKSCEDIQCTGGKKCLWDFKVGRGRCSLCDELCPDSKSDEPVCASDNATYASECAMKEAACSSGVLLEVKHSGSCNSISEDTEEEEEDEDQDYSFPISSILEW
Question: Which results are given for B1?
Answer: CTGF gene expression (keloid fibroblasts [1]; 1 nM follistatin, 24 hours): significantly decreased; activin A gene expression (keloid fibroblasts [1]; 1 nM follistatin, 24 hours): significantly decreased; CTGF (downstream target of activins) expression (keloid fibroblasts [1]; 100 ng/ml follistatin, vs controls): declined significantly; activin A expression of the gene and its protein (keloid fibroblasts [1]; after treatment with follistatin (summary of Examples 1 to 3)): significant downregulation; CTGF gene expression (keloid fibroblasts [1]; [9]): significantly decreased; activin A gene expression (keloid fibroblasts [1]; [9]): significantly decreased; activin A gene expression (keloid fibroblasts [1]; single treatment, 100 ng/ml follistatin): significantly decreased; INHBA expression (RNAseq) (keloid fibroblasts [7]; 5 days, 100 ng/ml): diminished; CTGF expression (RNAseq) (keloid fibroblasts [7]; day 5, 100 ng/ml): significantly decreased; PAI1 expression (RNAseq) (keloid fibroblasts [7]; day 5, 100 ng/ml): significantly decreased; other matrix related genes (RNAseq) (keloid fibroblasts [7]; day 5, 100 ng/ml): downregulated

B2: activin A: dimeric protein of the TGF-β superfamily, added exogenously at 200 pM (protein, UniProt P08476 311-426, looked up)
Inhibin beta A chain: GLECDGKVNICCKKQFFVSFKDIGWNDWIIAPSGYHANYCEGECPSHIAGTSGSSLSFHSTVINHYRMRGHSPFANLKSCCVPTKLRPMSMLYYDDGQNIIKKDIQNMIVEECGCS
modifications: Inhibin beta A chain homodimer
notes: dimeric protein of the TGF-β superfamily, added exogenously at 200 pM
Question: What does the source list for B2?
Answer: CTGF gene expression (keloid fibroblasts [1]; 200 pM activin A, 24 hours): significantly upregulated; FOSB gene expression (keloid fibroblasts [1]; 200 pM activin A, 24 hours): significantly upregulated; IL6 gene expression (keloid fibroblasts [1]; 200 pM activin A, 24 hours): significantly upregulated; INHBA (activin A) gene expression (keloid fibroblasts [1]; 200 pM activin A, 24 hours): further significant upregulation; also recorded: significantly upregulated; JUNB gene expression (keloid fibroblasts [1]; 200 pM activin A, 24 hours): significantly upregulated; PAI1 gene expression (keloid fibroblasts [1]; 200 pM activin A, 24 hours): significantly upregulated; TGFB2 gene expression (keloid fibroblasts [1]; 200 pM activin A, 24 hours): significantly upregulated; CTGF expression in fibroblasts from multiple patients (keloid fibroblasts [1]; 200 pM activin A, multiple patient samples (normal/keloid not distinguished)): upregulation; also recorded: increased; CTGF gene expression (normal fibroblasts [2]; 200 pM activin A, 24 hours): significantly upregulated; FOSB gene expression (normal fibroblasts [2]; 200 pM activin A, 24 hours): significantly upregulated; IL6 gene expression (normal fibroblasts [2]; 200 pM activin A, 24 hours): significantly upregulated; INHBA (activin A) gene expression (normal fibroblasts [2]; 200 pM activin A, 24 hours): significantly upregulated; JUNB gene expression (normal fibroblasts [2]; 200 pM activin A, 24 hours): significantly upregulated; PAI1 gene expression (normal fibroblasts [2]; 200 pM activin A, 24 hours): significantly upregulated; TGFB2 gene expression (normal fibroblasts [2]; 200 pM activin A, 24 hours): significantly upregulated
